Test results as given in publication PMC13337110, “Pericentrosomal Redistribution of the Endoplasmic Reticulum Ensures Organelle Symmetric Inheritance and Mitotic Progression” (Advanced Science, 2026).

Target: T1, 2×Strep-HA-RTN4B (human, UniProt Q9NQC3-2 1-373, when from mitotic cells: mitotic phosphorylation sites S15, S107, S111, S121, S129, S152)
T1 construct: Reticulon 4, isoform RTN4B, human; cDNA GenBank NM_153828.3 amplified from a U2OS cDNA library; N-terminal cytoplasmic region 1-185 and C-terminal RHD; Tag ends read from the printed construct name; also called Reticulon 4; 2×Strep-HA-RTN4B wild-type (WT); source: HeLa, stably expressed; not shown: 2×Strep, N-terminal, kept; HA, N-terminal, kept
T1 sequence (looked up): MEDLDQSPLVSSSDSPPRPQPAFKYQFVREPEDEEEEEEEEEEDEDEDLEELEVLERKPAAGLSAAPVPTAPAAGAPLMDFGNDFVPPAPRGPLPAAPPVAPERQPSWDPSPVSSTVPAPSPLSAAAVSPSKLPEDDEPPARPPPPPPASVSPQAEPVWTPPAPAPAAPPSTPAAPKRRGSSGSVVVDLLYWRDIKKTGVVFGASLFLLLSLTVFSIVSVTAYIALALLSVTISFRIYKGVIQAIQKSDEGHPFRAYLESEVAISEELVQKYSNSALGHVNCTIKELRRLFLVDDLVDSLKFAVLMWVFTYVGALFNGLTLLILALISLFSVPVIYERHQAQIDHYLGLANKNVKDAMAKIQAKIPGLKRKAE
Assay: pull-down; in vitro binding: 2×Strep-HA-RTN4B on Strep-Tactin XT beads incubated with purified GST-Rab11A, 2 h at 4°C; eluted with Strep-Tactin XT elution buffer; Western blot and Coomassie
Details: both partners purified

B1: GST-Rab11A (natural protein, human, UniProt P62491-1 1-216, looked up)
chain: MGTRDDEYDYLFKVVLIGDSGVGKSNLLSRFTRNEFNLESKSTIGVEFATRSIQVDGKTIKAQIWDTAGQERYRAITSAYYRGAVGALLVYDIAKHLTYENVERWLKELRDHADSNIVIMLVGNKSDLRHLRAVPTDEARAFAEKNGLSFIETSALDSTNVEAAFQTILTEIYRIVSQKQMSDRRENDMSPSNNVVPIHVPPTTENKPKVQCCQNI
notes: Rab11A, human; cDNA GenBank NM_004663.5 in pGEX-6P-1; also called Recombinant Rab11A; GST-tagged Rab11A; source: E. coli Rosetta (DE3), purified (Glutathione Sepharose 4B; eluted with reduced glutathione or kept on beads); not shown: GST, N-terminal, kept
binding result: binds
